Source: the DeepSol protein solubility set

Assay: soluble on expression in E. coli; label from the status in PepcDB or PDB records

Sequence	soluble on expression in E. coli
MSLLNRLRAFRERGWREVDAPTYAQAWQRFGGSVATHPLVVEQLAEMAGIPVRYLGWESAGELVAAIPTWGRHLALSKDVLKRRGKKGLYDLGNAELILPVAGDARIALRHAGRYLSALHERNIVTLRPQTEQLAFARAPEDFSKKFRYNQRREVRLVEEAGGQVRQADSFAPAEFAAMYLELFQRRWGFPATGAERMAEVFERLRELLRGSVLLLNDQPIAVQVLYRAEAPGWLSVEYINGGVDPQTREFSPGSVLSYLNTQAAWEDARALGKPLRYSFGRADREYKDRWCHPSPVFQVEGHHHHHH	soluble
MIPDQRRELMLRQLRKHQVLSVHQLMEMFDCSHMTIRRDIAQLEQEGRAYSVTGGVRIASQVHSEPSHQSKAVVELPHKQGMARLAAGLLHPDMTIYLDAGTSTLEIVPHIIALSGMTVVTNDFGVVNALADAAHVDVIHTGGLLDHPNRSSVGGLAAATLRQLATDVAFMSTSSWDLQRGTTTPSALKVEVKQAAMQSASQTVLVATSSKYGTFGMYKVAGLDQFDTIISDAALAEAAADGIRKQRIELLLAPVGGRSKLEHHHHHH	not soluble
MGHHHHHHGGHMSLLTFVGLGLWDVKDISVKGLEAVREADEVYVEYYTSKLLSSIEEMEEFFGKRVVELERSDLEENSFRLIERAKSKSVVLLVPGDPMVATTHSAIKLEAERKGVKTRIIHGASISTAVCGLTGLHNYRFGKSATVSWHRSQTPVNVIKANRSIDAHTLLFLDLHPEPMTIGHAVENLIAEDAQMKDLYAVGIARAGSGEEVVKCDRLENLKKIDFGKPLHVMVVLAKTLHFMEFECLREFADAPAELERLVAEGGS	soluble
MGSDKIHHHHHHMTYPKRIPINAWSEVHRVARPLIITFDAYNTLYATKLPVMEQYCIVGRKYGIKANPSTLTNNFPHVFKKLKEDYPQYGKYSGIKPEQWWSILIRNVFAPNEIPDEMINEILMRFEGFDSYFVYPDLIKFLKDLKSRHPDVILGIVSNTDPIFYKLLKNIGLFETFSGHIYLSYELNLAKPDRAIFQYALDDIISKQPHLLEKYTREEILQHCFHIGDELKNDLEGAEAAGWTGILLDRNDKYGFLSNSISKPMRDEYKLSIDKIDNNSINTWEANTKQTDTLQLSERKYVVSNLEVLEELFP	not soluble
MNTICKMRDIYKALSIFETAFEEVYGISLNEAMVLCALREAGKEITSTAIAERTEMAPSHTSKVIRAVEDKGLIRRALGEVDKRQMYFSLTEAGKKRLNELDLDKVEIPEMLKPLI	not soluble
MKLFLAEPFKSLWAGRDAFAEVEGLSGEVYRELEGRRTLRTEVDGRGYFVKIHRGIGWGEIAKNLATAKLPVLGAGKEWDAIERLHEVGVPTMTAVAYGERGSNPAAQHSFIVTEELAPTTSLEDVSLNWRTEPPEPRLKRAFIAEVARLVGMMHRAGVNHRDCYICHFLLHTDKPVTADDFRLSVIDLHRAQTRRAITPRWRNKDLAALYFSALDIGLTRRDKLRFLKDYFQLPLREILLKEAALLTWLDKKADKLYQRKVRYGDAL	not soluble
MSLSVLNAKECVSPITRSVKYHQQSAEIRALQLQSYKMAKMALDNNLKLVKDKKPAVILDLDETVLNTFDYAGYLIKNCIKYTPETWDKFEKEGSLTLIPGALDFLEYANSKGVKIFYISNRTQKNKAFTLKTLKSFKLPQVSEESVLLKEKGKPKAVRRELVAKDYAIVLQVGDTLHDFDAIFAKDAKNSQEQRAKVLQNAQKFGTEWIILPNSLYGTWEDEPIKAWQNKKEGHHHHHH	soluble
MTQHFPTRQLRFFLTAPTPCPYLPGREERKVFAHLPLSDGPIVNDSLTQVGFRRSQNIAYRPACETCRACQSARAPATEYILSRSERKILGRNDDLERHLVEAEATLEQFELLRRYLLTRHADGGMAEMTWPDYVAMVEDTAVRTHLIEYRRKSLDRGPGDLVACVLVDVLADGLSLVYSFYEPDQPRRSLGSFIILDHIVQAQQNALPYVYLGYWVPGSEKMAYKARFSPLEILKPGGWSLMSARERGARPPRGPGALKDACDLPLSDAQPADIEDLDLEHHHHHH	not soluble
MAQKTFTVTADSGIHARPATTLVQAASKFDSDINLEFNGKTVNLKSIMGVMSLGIQKGATITISAEGSDEADALAALEDTMSKEGLGE	soluble
LPAFFKTFDRQEDFMVDVFRLNIDALKENYLPLARFFENLNENTGNESSVILETSKSGMPNFRVKKGEHTFFVHSPYDPRTEAIRWAEKIDLKGFDTIAVLGIGCGYHIEELEKKYPDKNKIVIEPDRNVFLKLLNTRDITHLISSKNILFIISDNTEEIAKVFLLLREEGEIDSVEFNELLSYRKVYEDWWLELKKEYIKFARLHQINTNTSVFFAEAWLTNLFEGMWQLTKSVHIKEYKSAFANIPAIVVSAGPALNKNVHLLKELYNKAVIISAGSALNILESRGITPHIMVGVDGGEAESRIFNNVKSNEIYFAYSLSVHYDGLKNYSGPKIYFKTNVLGYGDWIDEKLGIEGAENLRSGSSVSNLSLDIARYMGCNPIIVIGQNLSFPNLESYADGAVLKQEQDRHIQQCVENSNKYYVLEKDIDGNDVYTTHSMLSIRFYFEEYIKNHPDRLYLNGSEEGLPIKGMKNMPLKEIVEKYCTKEYDIKGILDKKFKEEFEAENVKAKEIKIRRILEDIHKESTEIRQKAIKRIDLILDILSNIRGSHNDKWEEIDRLTDEIESSDLYKYFVEPLSKYFIQAVKNERERKMESIPDIQERLKYLYEGLLIQYVEVKDKIVLIDDLSQKIIENIDKKEATKCLSMV	soluble
MEATRNETKPVWVYIIFRKNHCSGHEKMTVNISFDGPIFWKRQVAYIYCCSCHFDEHEGPLMAILEKFEQRVERVCLVDKPVDYPFLPDSLFSYMANKMPKLQFIYLRELDLEKINRGTVVELANHPNLKKVIVHLCRNYEVLEDFRNLPQLLVVKGEIMGLKVSTW	not soluble
MAKRDYYEVLGVSRDAEEREIKKAYKRLAMKFHPDRQSEDKNAEEKFKEAKEAYEILTDAQKRAAYDQYGHAAFEQGGMGGGGFGGGGGGADFSDIFGDVFGDIFGGGRRQQRASRGSDLRYNMDLTLEEAVRGVTKEIRIPTLDECDVCHGSGAKPGSSPVTCPTCHGAGQVQMRQGFFTVQQACPHCHGRGQIIKDPCNKCHGHGRVEKSKTLSVKIPAGVDTGDRIRLSGEGEAGEHGAPSGDLYVQVQVKAHPIFEREGNNLYCEVPINFAMAALGGEIEVPTLDGRVKLKIPAETQTGKMFRMRGKGVKSVRGGSQGDLLCRVVVETPVSLSEKQKQLLRELEESFVGAAGEKNSPRAKSFLDGVKKFFDDLTR	not soluble
MSLDFNTLAQNFTQFYYNQFDTDRSQLGNLYRNESMLTFETSQLQGAKDIVEKLVSLPFQKVQHRITTLDAQPASPYGDVLVMITGDLLIDEEQNPQRFSQVFHLIPDGNSYYVFNDIFRLNYSA	soluble
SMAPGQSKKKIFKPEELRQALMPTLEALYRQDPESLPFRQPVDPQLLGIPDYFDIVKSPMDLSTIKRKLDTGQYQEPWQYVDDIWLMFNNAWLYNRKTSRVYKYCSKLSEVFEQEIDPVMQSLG	soluble
MGSDKIHHHHHHMKPRNESVILLHGLARTRGSMEKMEHALSAKGYQCVNLGYPSTQFDIETLAGEHIDKALSQCRGERVHFVTHSMGGILVRQYLSQHTLPALGRVVMLGPPNRGSEVVDSLKDFPGFKWINGPAGLQLGTEEESVPNRLGKAHFEVGVIAGSRSVNLLLSTLLPWPNDGKVSVARTHLEGMRDHISLAVTHPFMMNNPSVIAQTAYFLAHGRFQR	not soluble
MGSSHHHHHHGGTGENLYFQGGSGASTANASVDGSCPAMRDAADEALWAKLDEVQKLLANRSDAKELFTKYTVLRSVVGEVKPVFADSVRTRVKVFCEEPSFAAPEECDDFEPVSLHVVAYLNYKLFMEEMKELMVQARLLKSIGMEGSGLRFQRREQNIVAPGNEPRTGSSSKPSAQVSMHKPSYRPATLIPVGTLRLRRVSKASGAGKLTEVVAKIERVCVVKSARCFDVGRTLMRAAEKIARDAFHVRWALTYAQLSSKDFYTKAGYTPKDGRACMDLHMPHVVMVKCLVDASM	not soluble
WVQPITAQKPSLTLWLDDKMFTGLINTGADVTIIKLEDWPPNWPITDTLTNLRGIGQSNNPKQSSKYLTWRDKENNSGLIKPFVIPNLPVNLWGRDLLSQMKIMMAS	soluble
MVIAYVDANLQTNRQTIYFDHDLNRNKYNTIQLKKLTMTQDSDSEYEIERIIDHVSFLEAYESFYGQNVKRFAAIFSEERFKRTKKPQLISNYFFLVKWLGYGNKEMTWEPESNIPDSVYLYEYKKLNNMVMNRMNLKVSLTFTSRRKGYTPPVILEELQERKPKPQFLNMSNMAITLNDNLNNGKFGIVPVPKYKKKFGQNVNYLKFGNEVYKMKNVSFKDSTNNDIDNRVQQHHHEDRSFLQSMIKHNNIVRMRDLFVSYNKLDETVNITSIYDWCHQNLRQQLNNEKVSWKKVCRDILNALSFIHPYGIHQGVSLDHIYYHKGGTYKLSHFNNFFFGKRIPAEKVKSDRVELAPRLYNLKFKLGRNSDIYALAIVLLQCHNKKFSFRVNPSSVMEIEEDIAKGMSAFENKDDRHFLKSLLRARLHVYHGSGHYRFTSSSLLHHPVLQEPTARSVECFYFHSMLASPMKEIIHYHANDKISDVLQRFISLYHTSQEAEDKKYIMMFTKDTSSCDSVVLLNSLENFERVVDIDLTIMKNTLLIAPIILPSPENENCQKFLIIYEQELGGCPIVIETPEVNAAKFAKQLKEYSVSHEYRNRRLGLFPKLPGGDQQENGGLPEFSHHVWQMQLESNDDTVIKNRFDIASEIEMPLSGEMLEWDDVAGIANYGEILRNNSDNTTSRRKRETCSSDELDEAHAKREKVD	not soluble
MSLDRIKEYLQDKGKVTVNDLAQALGKDSSKDFRELIKTLSLMERKHQIRFEEDGSLTLEAKKKHEITLKGIFHAHKNGFGFVSLEGEEDDLFVGKNDVNYAIDGDTVEVVIKKVADRNKGTAAEAKIIDILEHSLTTVVGQIVLDQEKPKYAGYIRSKNQKISQPIYVKKSALKLEGTEVLKVFIDKYPSKKHDFFVASVLDVVGHSTDVGIDVLEVLESMDIVSEFPEAVVKEAESVPDAPSQKDMEGRLDLRDEITFTIDGADAKDLDDAVHIKALKNGNLELGVHIADVSYYVTEGSALDKEALNRATSVYVTDRVVPMLPERLSNGICSLNPQVDRLTQSAIMEIDKHGRVVNYTITQTVIKTSFRMTYSDVNDILAGDEEKRKEYHKIVSSIELMAKLHETLENMRVKRGALNFDTNEAKILVDKQGKPVDIVLRQRGIAERMIESFMLMANETVAEHFSKLDLPFIYRIHEEPKAEKVQKFIDYASSFGLRIYGTASEISQEALQDIMRAVEGEPYADVLSMMLLRSMQQARYSEHNHGHYGLAADYYTHFTSPIRRYPDLLVHRMIRDYGRSKEIAEHFEQVIPEIATQSSNRERRAIEAEREVEAMKKAEYMEEYVGEEYDAVVSSIVKFGLFVELPNTVEGLIHITNLPEFYHFNERDLTLRGEKSGITFRVGQQIRIRVERADKMTGEIDFSFVPSEFDVIEKGLKQSSRSGRGRGSNRRSDKKEDKRKSGRSNDKRKHSQKDKKKKGKKPFYKEVAKKGAKHGKGRGKGRRTKEGHHHHHH	not soluble
RYPTNNFGNCTGCSATFSVLKKRRSCSNCGNSFCSRCCSFKVPKSSMGATAPEAQRETVFVCASCNQTLSK	soluble
